T1: TIAR RRM2L (UniProt Q01085 94-181)
T1 sequence: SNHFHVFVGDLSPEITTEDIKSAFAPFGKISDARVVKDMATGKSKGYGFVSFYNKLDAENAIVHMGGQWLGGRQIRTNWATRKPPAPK

T2: TIAR RRM1 (UniProt Q01085 1-94)
T2 sequence: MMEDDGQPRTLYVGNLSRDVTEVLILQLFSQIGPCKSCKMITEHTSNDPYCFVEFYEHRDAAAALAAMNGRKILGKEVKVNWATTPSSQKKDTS

T3: TIAR RRM12S (UniProt Q01085 8-175)
T3 sequence: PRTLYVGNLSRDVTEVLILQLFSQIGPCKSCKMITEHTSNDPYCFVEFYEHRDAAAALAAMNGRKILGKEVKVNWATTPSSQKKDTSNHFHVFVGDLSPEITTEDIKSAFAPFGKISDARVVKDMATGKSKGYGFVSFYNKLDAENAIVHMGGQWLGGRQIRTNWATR


What was measured:
[1] = biological target: T1, TIAR RRM2L; assay: SPR
[2] = biological target: T2, TIAR RRM1; assay: SPR
[3] = biological target: T3, TIAR RRM12S; assay: SPR
[4] = biological target: T1, TIAR RRM2L; assay: NMR

Row | Binder | Kd [1] [nM] | binding result [2] | Kd [3] [nM] | binding result [4]
1 | GGGGGGUUUUUUUUUUUUUUUUUGGGGG (ssRNA) [U-rich RNA] | 200 ± 6 | no binding | – | –
2 | TTTTTTTTTTTTTTTTTTTT (ssDNA) [T-rich DNA] | 66 ± 3 | – | 314 ± 2 | –
3 | UUAUUU (ssRNA) [6-nt AU-rich RNA] | – | – | – | binds

From PMC3710364
